Test results as given in US20210253718A1, “FRIZZLED5 PROTEIN-BINDING AGENTS” (Modmab Therapeutics Corporation, priority 2016, published 2021).
Residue numbers refer to the chain shown, from its start. Blank lines part the entries; values can stand above or below the molecule they belong to.

How the values were obtained:
FZD3 CRD = biological target: T1, FZD3 CRD (Homo sapiens, UniProt Q9NPG1); experiment: Immunofluorescence of anti-FZD5 Fab binding to CHO cells overexpressing Frizzled CRD; set-up: key: −: no binding; +: very weak binder; ++: weak binder; +++: good binder; ++++: very good binder
T1 construct: CRD of FZD1, FZD2, FZD3, FZD4, FZD5, FZD6, FZD7, FZD8, FZD9 or FZD10; GPI anchor signal (C); expressed in transfected cells; host or cells: CHO cells, lentiviral pLenti-puro
T1 sequence (Q9NPG1 23-136 limits assumed): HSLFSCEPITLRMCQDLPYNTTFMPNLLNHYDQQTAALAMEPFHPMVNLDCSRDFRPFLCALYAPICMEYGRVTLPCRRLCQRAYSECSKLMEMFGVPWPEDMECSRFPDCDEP
Method in brief: (§1)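 CHO panel, 10 lines, each w/ one human FZD CRD-myc-GPI (lentiviral). Anti-FZD5 Fabs applied; surface binding scored by IF, cross-checked by FACS.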

FZD7 CRD = biological target: T2, FZD7 CRD (Homo sapiens, UniProt O75084); experiment: as above; set-up: key: −: no binding; +: very weak binder; ++: weak binder; +++: good binder; ++++: very good binder
T2 construct: D45-S169; GPI anchor signal (C); expressed in transfected cells; host or cells: CHO cells, lentiviral pLenti-puro
Method in brief: as §1

FZD8 CRD = biological target: T3, FZD8 CRD (Homo sapiens, UniProt Q9H461); experiment: as above; set-up: key: −: no binding; +: very weak binder; ++: weak binder; +++: good binder; ++++: very good binder
T3 construct: K31-D155; GPI anchor signal (C); expressed in transfected cells; host or cells: CHO cells, lentiviral pLenti-puro
T3 sequence (Q9H461 31-155): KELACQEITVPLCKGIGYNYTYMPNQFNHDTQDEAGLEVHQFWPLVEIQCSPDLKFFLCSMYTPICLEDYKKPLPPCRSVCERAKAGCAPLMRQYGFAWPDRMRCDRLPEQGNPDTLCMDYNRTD
Method in brief: as §1

ASPC-1 cells [1] = experiment: Effect of anti-FZD5 Fabs on proliferation of pancreatic cancer cell lines (percent growth inhibition); assay type: cell-based, human; details: Fab 10 μg/ml
Experimental: (§2) The effect of presently disclosed anti-FZD5 Fabs on proliferation of RNF43 loss-of-function mutant pancreatic cancer cell lines HPAFII, PATU8988S and ASPC-1; and on pancreatic cancer cell line RWP1, was tested at […] and 10 μg/ml.

HPAFII cells = experiment: as above; assay type: cell-based, human; details: for percent growth inhibition, HPAFII 2 μg/ml: Fab 2 μg/ml; for percent growth inhibition, HPAFII 10 μg/ml: Fab 10 μg/ml
Experimental: as §2

PATU8988S cells [2] = experiment: as above; assay type: cell-based, human; details: Fab 10 μg/ml
Experimental: as §2

RWP1 cells [3] = experiment: as above; assay type: cell-based, human; details: Fab 10 μg/ml
Experimental: as §2

[4] = system: CHO cells not expressing Frizzled CRD; experiment: Flow cytometry of anti-FZD5 Fab binding to CHO cells not expressing Frizzled CRD (background)
From the text: The binding of anti-FZD5 Fabs to cell surface-expressed Frizzled protein was further determined for each member of the Frizzled family via flow cytometry and immunofluorescence analysis of a panel of 10 CHO cell lines, each ectopically over-expressing the extracellular cysteine-rich domain (CRD) of a different Frizzled protein family member.

PATU8988S cells [5] = experiment: Effect of anti-FZD5 Fabs on proliferation of pancreatic cancer cell lines (percent growth inhibition); assay type: cell-based, human; details: Fab 2 μg/ml
ASPC-1 cells [6] = experiment: as above; assay type: cell-based, human; details: Fab 2 μg/ml
RWP1 cells [7] = experiment: as above; assay type: cell-based, human; details: Fab 2 μg/ml

Immunofluorescence binding, Frizzled CRD overexpressed on CHO cells: FZD3 (FZD3 CRD): − | Immunofluorescence binding, Frizzled CRD overexpressed on CHO cells: FZD7 (FZD7 CRD): + | Immunofluorescence binding, Frizzled CRD overexpressed on CHO cells: FZD8 (FZD8 CRD): +
B1: Fab-2900: anti-FZD5 Fab with antibody variable region Fv-2900; CDR SEQ ID NOs: 35, 36, 39, 78, 115, 153 (antibody, V domains shown)
VH: EVQLVESGGGLVQPGGSLRLSCAASGFNLSSYYIHWVRQAPGKGLEWVASISSSSSSTSYADSVKGRFTISADTSKNTAYLQMNSLRAEDTAVYYCARGALDYWGQGTLVTVSS
VL: DIQMTQSPSSLSASVGDRVTITCRASQSVSSAVAWYQQKPGKAPKLLIYSASSLYSGVPSRFSGSRSGTDFTLTISSLQPEDFATYYCQQWYSGSSLFTFGQGTKVEIK
percent growth inhibition, ASPC-1 10 μg/ml (ASPC-1 cells [1]): −1.26% | percent growth inhibition, HPAFII 2 μg/ml (HPAFII cells): 3.34% | percent growth inhibition, HPAFII 10 μg/ml (HPAFII cells): 3.46% | percent growth inhibition, PATU8988s 10 μg/ml (PATU8988S cells [2]): −51.41% | percent growth inhibition, RWP1 10 μg/ml (RWP1 cells [3]): −29.81% | Median fluorescence, Frizzled CRD overexpressed on CHO cells: None [4]: 3.4 | percent growth inhibition, PATU8988s 2 μg/ml (PATU8988S cells [5]): −29.28% | percent growth inhibition, ASPC-1 2 μg/ml (ASPC-1 cells [6]): −13.30% | percent growth inhibition, RWP1 2 μg/ml (RWP1 cells [7]): −28.30%

Immunofluorescence binding, Frizzled CRD overexpressed on CHO cells: FZD3 (FZD3 CRD): − | Immunofluorescence binding, Frizzled CRD overexpressed on CHO cells: FZD7 (FZD7 CRD): − | Immunofluorescence binding, Frizzled CRD overexpressed on CHO cells: FZD8 (FZD8 CRD): +
B2: Fab-2926: anti-FZD5 Fab with antibody variable region Fv-2926; CDR SEQ ID NOs: 35, 36, 65, 103, 141, 173 (antibody, V domains shown)
VH: B1 VH with L29I, S30Y, Y32S, I34M, S52Y, S53P, A100G
VL: B1 VL with S93H, S95G
percent growth inhibition, ASPC-1 10 μg/ml (ASPC-1 cells [1]): 24.71% | percent growth inhibition, HPAFII 2 μg/ml (HPAFII cells): −6.88% | percent growth inhibition, HPAFII 10 μg/ml (HPAFII cells): 4.88% | percent growth inhibition, PATU8988s 10 μg/ml (PATU8988S cells [2]): −36.54% | percent growth inhibition, RWP1 10 μg/ml (RWP1 cells [3]): 40.20% | percent growth inhibition, PATU8988s 2 μg/ml (PATU8988S cells [5]): −15.89% | percent growth inhibition, ASPC-1 2 μg/ml (ASPC-1 cells [6]): 17.27% | percent growth inhibition, RWP1 2 μg/ml (RWP1 cells [7]): 37.95%

Immunofluorescence binding, Frizzled CRD overexpressed on CHO cells: FZD3 (FZD3 CRD): − | Immunofluorescence binding, Frizzled CRD overexpressed on CHO cells: FZD7 (FZD7 CRD): − | Immunofluorescence binding, Frizzled CRD overexpressed on CHO cells: FZD8 (FZD8 CRD): +
B3: Fab-2923: anti-FZD5 Fab with antibody variable region Fv-2923; CDR SEQ ID NOs: 35, 36, 62, 100, 138, 162 (antibody, V domains shown)
VH: B1 VH with S30Y, S31Y, I34M, S52Y, S56G, L101M
VL: B1 VL with S93G, G94Y, S96A, F98I
percent growth inhibition, ASPC-1 10 μg/ml (ASPC-1 cells [1]): 34.00% | percent growth inhibition, HPAFII 2 μg/ml (HPAFII cells): 15.14% | percent growth inhibition, HPAFII 10 μg/ml (HPAFII cells): 18.17% | percent growth inhibition, PATU8988s 10 μg/ml (PATU8988S cells [2]): −19.05% | percent growth inhibition, RWP1 10 μg/ml (RWP1 cells [3]): 40.29% | percent growth inhibition, PATU8988s 2 μg/ml (PATU8988S cells [5]): −18.54% | percent growth inhibition, ASPC-1 2 μg/ml (ASPC-1 cells [6]): 35.27% | percent growth inhibition, RWP1 2 μg/ml (RWP1 cells [7]): 35.90%

Immunofluorescence binding, Frizzled CRD overexpressed on CHO cells: FZD3 (FZD3 CRD): − | Immunofluorescence binding, Frizzled CRD overexpressed on CHO cells: FZD7 (FZD7 CRD): + | Immunofluorescence binding, Frizzled CRD overexpressed on CHO cells: FZD8 (FZD8 CRD): +
B4: Fab-2901: anti-FZD5 Fab with antibody variable region Fv-2901; CDR SEQ ID NOs: 35, 36, 40, 79, 116, 154 (antibody, V domains shown)
VH: EVQLVESGGGLVQPGGSLRLSCAASGFNISYSYMHWVRQAPGKGLEWVASIYSYSSYTYYADSVKGRFTISADTSKNTAYLQMNSLRAEDTAVYYCARSWYYWSPSSGMDYWGQGTLVTVSS
VL: DIQMTQSPSSLSASVGDRVTITCRASQSVSSAVAWYQQKPGKAPKLLIYSASSLYSGVPSRFSGSRSGTDFTLTISSLQPEDFATYYCQQGGFLITFGQGTKVEIK
percent growth inhibition, ASPC-1 10 μg/ml (ASPC-1 cells [1]): 11.26% | percent growth inhibition, HPAFII 2 μg/ml (HPAFII cells): 6.38% | percent growth inhibition, HPAFII 10 μg/ml (HPAFII cells): 12.31% | percent growth inhibition, PATU8988s 10 μg/ml (PATU8988S cells [2]): −6.65% | percent growth inhibition, RWP1 10 μg/ml (RWP1 cells [3]): 21.10% | Median fluorescence, Frizzled CRD overexpressed on CHO cells: None [4]: 3.75 | percent growth inhibition, PATU8988s 2 μg/ml (PATU8988S cells [5]): −9.37% | percent growth inhibition, ASPC-1 2 μg/ml (ASPC-1 cells [6]): −8.27% | percent growth inhibition, RWP1 2 μg/ml (RWP1 cells [7]): −19.95%
